The values that follow are results of earlier work, collected in article PMC3905167.

A word on the Kd: it is the free concentration of one partner at which half of the binding sites on the other are occupied at equilibrium, for simple one-to-one binding.

Common to all, as to test: given as Ka
In data set [1] the target is FcγRIIIa (V158) (Homo sapiens) (UniProt P08637).
Data set [2] deals with FcγRIIa (H131) (Homo sapiens) (UniProt P12318).
The target of the next data set is FcγRI (Homo sapiens) (UniProt P12314).
The target of data set [3] is FcγRIIa (R131) (Homo sapiens) (UniProt P12318).
For data set [4], the target named is FcγRIIIa (F158) (Homo sapiens) (UniProt P08637).
FcγRIIIa (F158) (Homo sapiens), sequence (P08637 17-254): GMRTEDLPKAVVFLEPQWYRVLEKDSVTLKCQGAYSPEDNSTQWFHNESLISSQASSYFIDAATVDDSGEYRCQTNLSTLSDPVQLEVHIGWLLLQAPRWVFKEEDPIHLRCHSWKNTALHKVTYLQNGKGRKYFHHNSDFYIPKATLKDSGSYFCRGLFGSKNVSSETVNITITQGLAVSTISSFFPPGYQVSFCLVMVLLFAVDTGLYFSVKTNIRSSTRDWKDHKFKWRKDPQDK

IgG4, sequence (P01861 whole entry): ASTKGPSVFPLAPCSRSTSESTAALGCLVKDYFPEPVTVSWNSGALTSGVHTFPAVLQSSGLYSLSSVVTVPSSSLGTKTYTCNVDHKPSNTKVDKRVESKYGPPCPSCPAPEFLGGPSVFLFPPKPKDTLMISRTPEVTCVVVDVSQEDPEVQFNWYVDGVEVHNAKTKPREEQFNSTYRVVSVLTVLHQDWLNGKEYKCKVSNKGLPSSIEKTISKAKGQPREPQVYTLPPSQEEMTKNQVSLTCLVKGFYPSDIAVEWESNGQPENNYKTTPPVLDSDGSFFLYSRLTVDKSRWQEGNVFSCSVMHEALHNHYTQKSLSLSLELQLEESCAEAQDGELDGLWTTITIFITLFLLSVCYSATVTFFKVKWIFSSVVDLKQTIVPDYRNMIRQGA
FcγRI (Homo sapiens), sequence (P12314 16-374): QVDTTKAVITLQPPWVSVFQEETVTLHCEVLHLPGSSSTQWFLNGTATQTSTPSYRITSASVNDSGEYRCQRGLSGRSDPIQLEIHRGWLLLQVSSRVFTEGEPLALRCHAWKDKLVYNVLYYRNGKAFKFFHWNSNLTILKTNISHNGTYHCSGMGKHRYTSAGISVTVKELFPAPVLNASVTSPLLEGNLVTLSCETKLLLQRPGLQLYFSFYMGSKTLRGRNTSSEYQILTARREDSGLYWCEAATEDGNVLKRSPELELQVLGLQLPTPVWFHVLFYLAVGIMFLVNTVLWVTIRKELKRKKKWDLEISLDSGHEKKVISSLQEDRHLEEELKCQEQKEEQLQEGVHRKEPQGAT
FcγRIIIa (V158) (Homo sapiens), sequence (P08637 17-254): as the sequence (P08637 17-254) above
FcγRIIa (H131) (Homo sapiens), sequence (P12318 34-317): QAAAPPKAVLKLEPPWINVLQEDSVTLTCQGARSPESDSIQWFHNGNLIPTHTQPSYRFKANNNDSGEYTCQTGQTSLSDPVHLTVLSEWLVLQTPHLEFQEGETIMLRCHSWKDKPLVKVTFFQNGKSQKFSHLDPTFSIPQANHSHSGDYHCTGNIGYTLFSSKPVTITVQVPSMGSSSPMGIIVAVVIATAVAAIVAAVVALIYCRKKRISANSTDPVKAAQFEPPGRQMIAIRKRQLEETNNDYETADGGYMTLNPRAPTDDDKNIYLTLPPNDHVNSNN
FcγRIIa (R131) (Homo sapiens), sequence (P12318 34-317): as above

As to IgG4 (from UniProt P01861), the Kd in data set [1] is 4000 nM; in data set [2], 5880 nM; with FcγRI (Homo sapiens) it was 29.4 nM; in data set [3] it was 4760 nM; in data set [4] it was 5000 nM.
IgG1 (from UniProt P01857): the Kd in data set [1] was 500 nM; in data set [2], 192 nM; with FcγRI (Homo sapiens), 15.4 nM; in data set [3] it was 286 nM; in data set [4], 855 nM.
